From paper PMC7556843 (2020)

Molecular target: Ub2 (Homo sapiens)
Assay: ITC; values taken from Vincendeau et al.

B1: Human NEMO258-350 C347S (NEMO UBAN domain) (domain or fragment)
chain: MQLEDLKQQLQQAEEALVAKQEVIDKLKEEAEQHKIVMETVPVLKAQADIYKADFQAERQAREKLAEKKELLQEQLEQLQREYSKLKASSQES
modifications: linear (M1-linked) diubiquitin, two 76-residue units fused head to tail; the N-terminal His-tag present in the SAXS sample is left out
  Kd: 1810 nM
